Where “and” joins values, the source holds several entries; their conditions need not be identical. Equal entries are not always repeated.

Assay [1] addresses Pf34 bait (P. falciparum Pf34 ectodomain, human Fc-tagged dimeric bait) (P. falciparum).
Assay [2] shares this target. Nature of the assay: SPR.
The target of assay [3] is Pf34 bait (Pf34 ectodomain with CD4d3+4, human Fc and C-tag) (Plasmodium falciparum). Briefly: SPR.
The target in another assay is Izumo (Mus musculus) (UniProt Q9D9J7). To be noted: cited from earlier work.
Izumo (Mus musculus), sequence (Q9D9J7 22-319): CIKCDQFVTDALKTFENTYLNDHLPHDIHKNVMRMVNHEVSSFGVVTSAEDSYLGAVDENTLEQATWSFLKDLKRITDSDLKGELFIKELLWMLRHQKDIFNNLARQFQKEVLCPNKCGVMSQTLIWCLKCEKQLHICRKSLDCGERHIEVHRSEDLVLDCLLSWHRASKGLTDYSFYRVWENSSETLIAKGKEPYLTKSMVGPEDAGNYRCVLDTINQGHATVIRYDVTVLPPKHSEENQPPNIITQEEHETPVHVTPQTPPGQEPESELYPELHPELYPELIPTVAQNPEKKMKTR
The target of assay [4] is PfRON6 C-terminal bait (PfRON6 residues 537-950 with CD4d3+4, human Fc and C-tag) (Plasmodium falciparum). Nature of the assay: SPR.

Juno, sequence (Q9EQF4 20-222): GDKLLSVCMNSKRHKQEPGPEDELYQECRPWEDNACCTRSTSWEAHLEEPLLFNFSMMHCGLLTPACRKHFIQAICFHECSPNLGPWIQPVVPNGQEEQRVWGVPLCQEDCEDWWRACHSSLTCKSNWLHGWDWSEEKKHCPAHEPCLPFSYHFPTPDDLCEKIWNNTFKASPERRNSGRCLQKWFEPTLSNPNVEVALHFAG

With “FGFR4 prey (human fibroblast growth factor receptor 4 ectodomain, pentameric 5xNanoLuc-tagged prey) (from UniProt P22455 22-369)”, in assay [1], the inhibition of NF54 sporozoite invasion of primary human hepatocytes (ISI assay) by LD1 mAb, up to 25 µg/mL was determined as 20% and the inhibition of NF54 sporozoite invasion of primary human hepatocytes (ISI assay) by anti-FGFR4 rabbit pAbs, up to 2 mg/mL was 20%.

In the case of “FGFR4-CD4-Bio-His (purified monomeric FGFR4 ectodomain) (from UniProt P22455 22-369) (receptor)”, in assay [2], the Kd is 46 µM and 40 µM; the t1/2 was < 1 s and 0.4 s.

For “FGFR4-CD4-Bio-His (purified monomeric human FGFR4 ectodomain) (from UniProt P22455 22-369) (receptor)”, in assay [3], the Kd is 47 µM and 14 µM and 31 µM; the kon is 16000 M⁻¹ s⁻¹ and 44000 M⁻¹ s⁻¹ and 30000 M⁻¹ s⁻¹.

For the substance Juno (from UniProt Q9EQF4), the Kd with Izumo (Mus musculus) is 12 µM.

Regarding “Pf34-CD4-Bio-His (purified monomeric Pf34) (natural protein)”, in assay [4], the Kd amounted to 2900 nM, the koff was found to be 0.0015 s⁻¹ and the on-rate constant (kon) came to 520 M⁻¹ s⁻¹.
